Measurements taken from US20050142568A1 (published 2005).

Columns and labels:
Experiment in all cases: GST pull-down, 35S-Met protein vs GST fusion; - means no detectable binding (footnote a)
GST-NUC-1 = target: T1, GST-NUC-1 (C. elegans, UniProt Q17778 22-375)
T1 construct: also called NUC-1 GST-fusion protein; not shown: glutathione S-transferase tag encoded by vector pGEX4T-2
T1 sequence (looked up): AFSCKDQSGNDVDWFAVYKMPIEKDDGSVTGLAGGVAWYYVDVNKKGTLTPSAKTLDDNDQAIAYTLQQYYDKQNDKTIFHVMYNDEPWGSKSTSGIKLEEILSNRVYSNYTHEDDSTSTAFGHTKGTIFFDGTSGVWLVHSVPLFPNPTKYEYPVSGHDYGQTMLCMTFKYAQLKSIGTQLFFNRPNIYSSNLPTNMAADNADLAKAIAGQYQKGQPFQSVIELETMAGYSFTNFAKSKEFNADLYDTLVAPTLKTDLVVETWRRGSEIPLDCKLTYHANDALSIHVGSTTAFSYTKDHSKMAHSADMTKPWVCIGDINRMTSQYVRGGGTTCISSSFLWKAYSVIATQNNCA
Method: (§1) GST fusion protein pull-down assays were performed as described in J. Parrish, H. Metters, L. Chen, D. Xue, Proc. Natl. Acad. Sci. U.S.A. 97, 11916 (2000). Purified GST or GST-fusion proteins (5 μg each) immobilized on glutathione sepharose beads were incubated with ³⁵S-Methionine labeled proteins at 4° C. for 2 hours. The beads were washed extensively and the bound proteins were resolved on a 12% SDS-PAGE and visualized by autoradiography. [0103] cDNAs corresponding to the ORFs were cloned into the pPD129.36 vector via its Nhe I and Xho I sites or the Xho I site alone. Full-length cDNAs were subcloned into the pGEX4T-2 vector for generating GST fusion proteins and for further protein purification and into the pcDNA3.1 vector for in vitro transcription/translation experiments.
(§2) ^aInteractions were evaluated relative to background binding of ³⁵S-Methionine labeled Luciferase to GST-fusion proteins and ³⁵S-Methionine labeled proteins to GST. “−” indicates no detectable binding, “+” indicates an interaction consistently observed above background levels, and “++” indicates a strong interaction. ^bBecause ³⁵S-Methionine labeled CRN-1 binds GST tightly, it was not possible to evaluate interactions between ³⁵S-CRN-1 and various GST-fusion proteins. ND, not determined.

GST-CPS-6 = target: T2, GST-CPS-6 (C. elegans, UniProt Q95NM6 1-308)
T2 construct: GST at the N-terminus as in pGEX vectors; also called CPS-6 GST-fusion protein; not shown: glutathione S-transferase tag encoded by vector pGEX4T-2
T2 sequence (looked up): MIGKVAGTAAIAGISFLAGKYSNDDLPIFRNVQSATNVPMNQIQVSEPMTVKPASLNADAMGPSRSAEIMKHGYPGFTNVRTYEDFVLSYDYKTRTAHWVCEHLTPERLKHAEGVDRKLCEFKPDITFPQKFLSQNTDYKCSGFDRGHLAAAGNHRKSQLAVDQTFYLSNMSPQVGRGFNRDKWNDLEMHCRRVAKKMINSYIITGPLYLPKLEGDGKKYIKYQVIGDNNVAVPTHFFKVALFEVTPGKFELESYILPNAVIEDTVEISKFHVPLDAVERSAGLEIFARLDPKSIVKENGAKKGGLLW
Method: as §1, §2

[1] = target: T3, GST (glutathione-S transferase alone) (UniProt P08515 1-218 = GST)
T3 construct: Purified GST used as negative control bait on glutathione sepharose beads; also called OST
Method: as §1, §2

GST-CRN-5 = target: T4, GST-CRN-5 (C. elegans, UniProt G5EG59 1-214)
T4 construct: also called CRN-5 GST-fusion protein; not shown: GST carrier and the linker of vector pGEX4T-2
T4 sequence: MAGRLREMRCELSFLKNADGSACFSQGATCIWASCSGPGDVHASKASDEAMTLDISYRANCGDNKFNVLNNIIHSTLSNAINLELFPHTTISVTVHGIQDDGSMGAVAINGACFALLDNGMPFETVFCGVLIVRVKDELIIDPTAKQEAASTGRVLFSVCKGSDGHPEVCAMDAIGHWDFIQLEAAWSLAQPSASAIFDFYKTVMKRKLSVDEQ
Method: as §1, §2

GST-CRN-4 = target: T5, GST-CRN-4 (C. elegans, UniProt Q10905 1-298)
T5 construct: also called CRN-4 GST-fusion protein; not shown: glutathione S-transferase tag encoded by vector pGEX4T-2
T5 sequence (looked up): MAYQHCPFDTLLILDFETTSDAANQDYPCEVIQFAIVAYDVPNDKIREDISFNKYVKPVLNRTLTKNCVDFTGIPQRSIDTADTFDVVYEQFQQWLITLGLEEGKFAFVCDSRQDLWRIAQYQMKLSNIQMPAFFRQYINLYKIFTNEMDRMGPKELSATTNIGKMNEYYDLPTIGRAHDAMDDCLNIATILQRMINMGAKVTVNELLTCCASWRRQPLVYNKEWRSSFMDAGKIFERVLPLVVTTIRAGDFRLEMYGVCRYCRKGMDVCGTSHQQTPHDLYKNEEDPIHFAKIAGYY
Method: as §1, §2

Measured: binding result

T3 sequence (P08515 whole entry): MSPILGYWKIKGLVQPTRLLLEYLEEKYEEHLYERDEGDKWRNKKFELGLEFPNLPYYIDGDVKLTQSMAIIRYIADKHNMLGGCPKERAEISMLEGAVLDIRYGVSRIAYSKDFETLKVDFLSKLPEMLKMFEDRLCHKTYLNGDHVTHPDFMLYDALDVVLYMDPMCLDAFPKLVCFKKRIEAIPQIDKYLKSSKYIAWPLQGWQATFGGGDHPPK

B1: ^35S-Methionine labeled CRN-2 (enzyme, C. elegans)
chain: MALYELVDIGANLGHPSYQKDLNDVLDRAKQAGLSKIMVTGTSEKISHECADLVEKYPGFLYFTAGVHPHDAKDWNDGTLEALKKLQENPSCVAVGECGLDFNRNFSPQDVQKEVFAKQVDMAVKLQKPLFIHEREAHEDMVKILTAAGPSLPPAVIHCFTGTVVEAKKYLEMGFYIGLTGFLWKDRSDNGVQAGLRSGEIPIEKLVLETDAPYMYPKINDKKIPKEIKSLITPETEALHNFSSFNRNEPCSLAAVCELVAAFAGRDPKEVAKITTENAKKVYKLE
no binding: GST-NUC-1 | GST-CPS-6 | [1] | GST-CRN-5 | GST-CRN-4
